Numbering of substitutions follows the chain as printed.
Legend:
Test in all cases: cell-based or functional assay
[1] = molecular target: T1, human IL-18 receptor complex (IL-18Rα/β) (human, UniProt Q13478 19-541; O95256 20-599)
T1 sequence (looked up) 1: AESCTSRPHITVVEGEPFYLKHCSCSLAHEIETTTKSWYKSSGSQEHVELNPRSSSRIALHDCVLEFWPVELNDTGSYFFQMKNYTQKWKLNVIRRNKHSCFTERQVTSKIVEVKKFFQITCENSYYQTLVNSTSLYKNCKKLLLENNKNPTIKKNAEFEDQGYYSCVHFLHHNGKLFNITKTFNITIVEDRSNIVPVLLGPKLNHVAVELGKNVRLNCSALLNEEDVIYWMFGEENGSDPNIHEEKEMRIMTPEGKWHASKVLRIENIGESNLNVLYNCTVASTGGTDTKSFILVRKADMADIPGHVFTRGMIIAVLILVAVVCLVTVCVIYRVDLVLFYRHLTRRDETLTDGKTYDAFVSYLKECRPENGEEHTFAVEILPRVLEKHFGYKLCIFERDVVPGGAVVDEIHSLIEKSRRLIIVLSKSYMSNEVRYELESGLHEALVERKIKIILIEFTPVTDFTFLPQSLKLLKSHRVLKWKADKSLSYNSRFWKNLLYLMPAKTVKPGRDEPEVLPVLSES
T1 sequence (looked up) 2: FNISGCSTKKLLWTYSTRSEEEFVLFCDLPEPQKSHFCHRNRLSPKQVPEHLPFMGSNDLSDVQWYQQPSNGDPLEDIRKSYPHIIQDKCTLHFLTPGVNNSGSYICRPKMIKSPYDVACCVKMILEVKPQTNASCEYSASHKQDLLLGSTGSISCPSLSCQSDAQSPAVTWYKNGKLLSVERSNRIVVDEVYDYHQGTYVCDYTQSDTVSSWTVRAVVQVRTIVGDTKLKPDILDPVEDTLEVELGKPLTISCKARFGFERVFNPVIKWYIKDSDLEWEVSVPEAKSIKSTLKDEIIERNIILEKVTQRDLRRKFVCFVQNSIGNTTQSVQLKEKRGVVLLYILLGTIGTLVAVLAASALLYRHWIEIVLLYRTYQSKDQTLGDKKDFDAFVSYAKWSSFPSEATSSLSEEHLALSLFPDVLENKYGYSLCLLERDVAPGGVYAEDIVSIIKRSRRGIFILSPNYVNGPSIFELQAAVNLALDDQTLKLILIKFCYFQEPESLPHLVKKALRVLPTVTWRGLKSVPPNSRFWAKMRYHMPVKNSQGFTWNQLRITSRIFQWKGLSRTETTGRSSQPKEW

[2] = molecular target: T1, human IL-18 receptor complex (IL-18Rα/β); remark: listed apart in the source
[3] = molecular target: T2, human recombinant IL-18-BP (human, UniProt O95998 31-194)
T2 sequence (looked up): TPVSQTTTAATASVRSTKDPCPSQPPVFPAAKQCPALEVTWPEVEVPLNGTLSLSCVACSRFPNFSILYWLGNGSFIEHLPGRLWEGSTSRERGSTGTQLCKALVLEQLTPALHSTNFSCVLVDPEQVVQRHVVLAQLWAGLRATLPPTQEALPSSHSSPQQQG

[4] = molecular target: T1, human IL-18 receptor complex (IL-18Rα/β); remark: listed apart in the source

B1: FUSE-782 (antibody, human IgG1, kappa, L234A L235A)
heavy 1: QVQLVESGGGVVQPGRSLRLDCKASGITFSNSGMHWVRQAPGKGLEWVAVIWYDGSKRYYADSVKGRFTISRDNSKNTLFLQMSSLRAEDTAVYYCATNDDYWGQGTLVTVSSASTKGPSVFPLAPSSKSTSGGTAALGCLVKDYFPEPVTVSWNSGALTSGVHTFPAVLQSSGLYSLSSVVTVPSSSLGTQTYICNVNHKPSNTKVDKKVEPKSCDKTHTCPPCPAPEAAGGPSVFLFPPKPKDTLMISRTPEVTCVVVDVSHEDPEVKFNWYVDGVEVHNAKTKPREEQYNSTYRVVSVLTVLHQDWLNGKEYKCKVSNKALPAPIEKTISKAKGQPREPQVYTLPPSREEMTKNQVSLSCAVKGFYPSDIAVEWESNGQPENNYKTTPPVLDSDGSFFLVSKLTVDKSRWQQGNVFSCSVMHEALHNRFTQKSLSLSPGK
heavy 2: QVQLVESGGGVVQPGRSLRLDCKASGITFSNSGMHWVRQAPGKGLEWVAVIWYDGSKRYYADSVKGRFTISRDNSKNTLFLQMSSLRAEDTAVYYCATNDDYWGQGTLVTVSSASTKGPSVFPLAPSSKSTSGGTAALGCLVKDYFPEPVTVSWNSGALTSGVHTFPAVLQSSGLYSLSSVVTVPSSSLGTQTYICNVNHKPSNTKVDKKVEPKSCDKTHTCPPCPAPEAAGGPSVFLFPPKPKDTLMISRTPEVTCVVVDVSHEDPEVKFNWYVDGVEVHNAKTKPREEQYNSTYRVVSVLTVLHQDWLNGKEYKCKVSNKALPAPIEKTISKAKGQPREPQVYTLPPSREEMTKNQVSLWCLVKGFYPSDIAVEWESNGQPENNYKTTPPVLDSDGSFFLYSKLTVDKSRWQQGNVFSCSVMHEALHNHYTQKSLSLSPGGGGGSGGGGSGGGGSGGGGSAAEPVEDNSINFVAMKFIDNTLYFIAENDENGGGSYFGKLESKLSVIRNLNDQVLFIDQGNRPLFEDMTDSDSRDNAPRTIFIISKYGDSQPRGLAVTISVKSEKISTLSSENKIISFKEMNPPDNIKDTKSDIIFFQRSVPGHDNKVQFESSSYEGYFLASEKERDLFKLILKKEDELGDRSIMFTVQNED
light: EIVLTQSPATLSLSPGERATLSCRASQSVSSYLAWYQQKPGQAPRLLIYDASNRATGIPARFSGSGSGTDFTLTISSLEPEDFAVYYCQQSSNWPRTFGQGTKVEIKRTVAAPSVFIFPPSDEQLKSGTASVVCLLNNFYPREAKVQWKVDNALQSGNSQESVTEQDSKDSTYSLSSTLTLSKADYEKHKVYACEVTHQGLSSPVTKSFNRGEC
IL18 biological activity on HEK Blue IL18 (trans activity only), attenuation relative to recombinant human IL18 [1]: > 100000 fold | SEAP release of PD-1 decorated HEK Blue IL18 (cis activity), increase relative to non targeted FUSE827 [1]: ~100 fold | SEAP release, PD-1 decorated HEK Blue IL-18 against non-decorated HEK Blue IL18 [1]: ~100 fold

B2: FUSE-783 (antibody, human IgG1, kappa, L234A L235A)
heavy 1: B1 heavy 1
heavy 2: B1 heavy 2 with S471V, S535V, S565V, S573V, S624V
light: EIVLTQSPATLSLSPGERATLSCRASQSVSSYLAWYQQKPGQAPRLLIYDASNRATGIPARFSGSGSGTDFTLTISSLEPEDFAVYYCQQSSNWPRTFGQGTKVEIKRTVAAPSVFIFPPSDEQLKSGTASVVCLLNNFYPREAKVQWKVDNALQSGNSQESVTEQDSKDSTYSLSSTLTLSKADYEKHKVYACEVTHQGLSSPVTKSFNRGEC
IL18 biological activity on HEK Blue IL18 (trans activity only), attenuation relative to recombinant human IL18 [1]: ~1000 fold | SEAP release of PD-1 decorated HEK Blue IL18 (cis activity), increase relative to non targeted FUSE775 [1]: ~30 fold | SEAP release, PD-1 decorated HEK Blue IL-18 against non-decorated HEK Blue IL18 [1]: ~30 fold

B3: IL-18AV released from FUSE-442 by enterokinase (ligand)
chain: YFGKLESKLSVIRNLNDQVLFIDQGNRPLFEDMTDSDVRDNAPRTIFIISMYKDSQPRGMAVTISVKVEKISTLSVENKIISFKEMNPPDNIKDTKSDIIFFQRSVPGHDNKMQFESSSYEGYFLAVEKERDLFKLILKKEDELGDRSIMFTVQNED
EC50-SEAP, HEK-Blue IL-18 reporter cells, EK-cleaved FUSE-442 titrated in medium alone (row 'FUSE442 + EK') [2]: 18.6 pg/mL | EC50-SEAP, HEK-Blue IL-18 reporter cells, EK-cleaved FUSE-442 titrated in medium with 1.25 µg/ml rhIL-18BP (row 'FUSE442 + EK +BP') [3]: 211 pg/mL

B4: IL-18mut2AV released from FUSE-424 by enterokinase (ligand)
chain: B3 chain with M51K, K53G, M60L, M113V
EC50-SEAP, HEK-Blue IL-18 reporter cells, EK-cleaved FUSE-424 titrated in medium alone (table G beside graph F 'EK-FUSE424'; the table row itself is labelled 'FUSE442 + EK') [4]: 3.4 pg/mL
